The results in this text go back to article PMC10542384.

In the assay the target is RNF111 (Arkadia) (UniProt Q6ZNA4). The assay can be described thus: proximity ligation assay (PLA). Particulars: ARKL1 KO U2OS cells complemented with HA-ARKL1WT (n = 28), HA-ARKL1SIM* (n = 20) or vector (n = 17); antibodies against HA and RNF111; parent: est. 9.0; read off a plot.
Chain of UniProt Q6ZNA4 (Q6ZNA4 whole entry): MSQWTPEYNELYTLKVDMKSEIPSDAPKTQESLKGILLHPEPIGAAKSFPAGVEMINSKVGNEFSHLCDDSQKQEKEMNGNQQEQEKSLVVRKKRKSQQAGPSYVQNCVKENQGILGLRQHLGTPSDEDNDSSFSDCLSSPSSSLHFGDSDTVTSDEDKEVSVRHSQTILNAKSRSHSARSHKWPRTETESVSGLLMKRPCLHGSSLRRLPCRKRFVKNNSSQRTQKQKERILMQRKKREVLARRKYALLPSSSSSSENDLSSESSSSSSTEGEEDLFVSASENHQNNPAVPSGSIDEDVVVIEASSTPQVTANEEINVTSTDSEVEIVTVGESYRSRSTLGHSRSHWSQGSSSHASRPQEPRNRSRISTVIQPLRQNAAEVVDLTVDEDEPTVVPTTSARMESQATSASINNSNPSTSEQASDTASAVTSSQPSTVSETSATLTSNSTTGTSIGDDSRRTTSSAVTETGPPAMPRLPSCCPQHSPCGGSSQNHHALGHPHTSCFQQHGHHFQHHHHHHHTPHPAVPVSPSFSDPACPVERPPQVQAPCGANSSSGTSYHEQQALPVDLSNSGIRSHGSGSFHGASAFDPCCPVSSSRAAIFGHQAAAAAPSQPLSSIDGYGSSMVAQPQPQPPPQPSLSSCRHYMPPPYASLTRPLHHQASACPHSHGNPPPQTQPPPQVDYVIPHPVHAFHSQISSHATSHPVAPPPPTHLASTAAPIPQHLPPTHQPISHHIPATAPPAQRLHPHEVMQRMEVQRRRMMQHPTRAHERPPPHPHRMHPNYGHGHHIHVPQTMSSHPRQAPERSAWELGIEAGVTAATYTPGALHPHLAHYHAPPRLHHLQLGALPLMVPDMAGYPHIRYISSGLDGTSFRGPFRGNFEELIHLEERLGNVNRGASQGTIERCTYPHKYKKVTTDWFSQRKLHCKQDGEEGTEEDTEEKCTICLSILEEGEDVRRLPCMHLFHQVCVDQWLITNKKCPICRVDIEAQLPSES

Turning to “HA-ARKL1 wild type (from UniProt Q96B23) SIM*”, the response (PLA foci per cell) came out at 1.
